Reference: publication PMC9352680, “A comprehensive thermodynamic model for RNA binding by the Saccharomyces cerevisiae Pumilio protein PUF4”

Molecular target: T1, PUF4 RNA-binding domain (Saccharomyces cerevisiae, UniProt P25339 537-888)
T1 sequence: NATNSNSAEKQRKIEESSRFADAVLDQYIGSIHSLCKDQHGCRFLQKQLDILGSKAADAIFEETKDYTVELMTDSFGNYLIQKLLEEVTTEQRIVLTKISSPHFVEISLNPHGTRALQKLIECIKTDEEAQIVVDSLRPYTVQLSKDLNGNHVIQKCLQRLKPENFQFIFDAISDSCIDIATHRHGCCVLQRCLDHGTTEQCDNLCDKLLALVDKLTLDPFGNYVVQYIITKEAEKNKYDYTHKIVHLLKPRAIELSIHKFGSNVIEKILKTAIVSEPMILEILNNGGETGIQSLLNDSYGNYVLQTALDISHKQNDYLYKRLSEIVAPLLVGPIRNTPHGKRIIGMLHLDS
Assay: Mg; RNA-MaP; 20 mM Na-HEPES pH 7.4, 30 mM KOAc, 0.75 mM MgCl2, 0.1% Tween-20, 5% glycerol, 0.1 mg/mL BSA, 2 mM DTT; 25 C; 0.0125-409.6 nM protein
Details: tags: N-His6-TEV cleaved; C-SNAP kept, Cy3B-labelled; label: tethered on chip by stalled RNA polymerase

B1: Ib_S1_P4E.1_K4.1_C4.1_H4.1_[G2A]_A4.1_[T7G]_F4.1_T4.1 (ssRNA)
RNA: UCUCUUUAUAUAGUAUCUCUU
B1 gave a Kd of 50.5 nM.

B2: Id_ii_S1_P4E.2_K4.1_C4.2_[C-2G]_[T-1C]_H4.1_A4.1_F4.1_T4.2_[G10C]_[T11C] (ssRNA)
RNA: UCUCUUGCUGUAUAUUACCUCUCUU
B2 gave a Kd of 0.957 nM.

B3: Id_ii_S1_P3E.4_K3.3_C3.2_[T-1C]_H3.3_A3.1_F3.1_T3.2_[T9A] (ssRNA)
RNA: UCUCUUCCACACUAUAAAUCUCUU
For B3, the Kd was over 2300 nM.

B4: Id_ii_S1_P3E.4_K3.3_C3.2_[C-2A]_H3.3_A3.1_F3.1_T3.2_[T9C]_[A10T] (ssRNA)
RNA: UCUCUUAUACACUAUACUUCUCUU
Work on B4 yielded a Kd of 36.1 nM.

B5: Id_ii_S1_P3E.4_K3.3_C3.2_[T-1G]_H3.3_A3.1_F3.1_T3.2_[T9A]_[A10C] (ssRNA)
RNA: UCUCUUCGACACUAUAACUCUCUU
B5 showed a Kd of over 2300 nM.

B6: Id_ii_S1_P3E.4_K3.3_C3.2_[C-2A]_[T-1G]_H3.3_A3.1_F3.1_T3.2_[T9A]_[A10T] (ssRNA)
RNA: UCUCUUAGACACUAUAAUUCUCUU
B6 gave a Kd of over 2300 nM.

B7: Id_ii_S1_P3E.4_K3.3_C3.2_[T-1G]_H3.3_A3.1_F3.1_T3.2_[T9C]_[A10T] (ssRNA)
RNA: UCUCUUCGACACUAUACUUCUCUU
Binder B7 has a Kd of over 2300 nM.

B8: Id_ii_S1_P3E.4_K3.3_C3.2_[T-1A]_H3.3_A3.1_F3.1_T3.2_[T9A]_[A10C] (ssRNA)
RNA: UCUCUUCAACACUAUAACUCUCUU
With B8 the Kd was over 2300 nM.

B9: Id_ii_S1_P3E.4_K3.3_C3.2_[T-1C]_H3.3_A3.1_F3.1_T3.2_[T9C] (ssRNA)
RNA: UCUCUUCCACACUAUACAUCUCUU
With B9 the Kd was over 2300 nM.

B10: Id_ii_S1_P3E.4_K3.3_C3.2_H3.3_A3.1_F3.1_T3.2_[A10C] (ssRNA)
RNA: UCUCUUCUACACUAUAUCUCUCUU
Binder B10 has a Kd of 1460 nM.

B11: Id_ii_S1_P3E.4_K3.3_C3.2_[C-2A]_[T-1G]_H3.3_A3.1_F3.1_T3.2_[A10C] (ssRNA)
RNA: UCUCUUAGACACUAUAUCUCUCUU
B11 gave a Kd of over 2300 nM.

B12: Id_ii_S1_P4E.2_K4.1_C4.2_[C-2G]_H4.1_A4.1_F4.1_T4.2_[G10T]_[T11G] (ssRNA)
RNA: UCUCUUGUUGUAUAUUAUGUCUCUU
With B12 the Kd was 1.07 nM.

B13: Id_ii_S1_P3E.4_K3.3_C3.2_[T-1C]_H3.3_A3.1_F3.1_T3.2_[T9C]_[A10T] (ssRNA)
RNA: UCUCUUCCACACUAUACUUCUCUU
B13 showed a Kd of over 2300 nM.

B14: Id_ii_S1_P3E.4_K3.3_C3.2_[C-2A]_H3.3_A3.1_F3.1_T3.2_[T9C] (ssRNA)
RNA: UCUCUUAUACACUAUACAUCUCUU
For B14, the Kd was 34.9 nM.

B15: Id_ii_S1_P4E.2_K4.1_C4.2_[C-2G]_[T-1C]_H4.1_A4.1_F4.1_T4.2_[G10T]_[T11A] (ssRNA)
RNA: UCUCUUGCUGUAUAUUAUAUCUCUU
Work on B15 yielded a Kd of 1.92 nM.

B16: Id_ii_S1_P3E.4_K3.3_C3.2_[T-1A]_H3.3_A3.1_F3.1_T3.2_[A10C] (ssRNA)
RNA: UCUCUUCAACACUAUAUCUCUCUU
B16 was tested, and the Kd was over 2300 nM.

B17: Id_ii_S1_P3E.4_K3.3_C3.2_H3.3_A3.1_F3.1_T3.2_[T9A]_[A10T] (ssRNA)
RNA: UCUCUUCUACACUAUAAUUCUCUU
In the case of B17, the Kd is reported as 1870 nM.

B18: Id_ii_S1_P3E.4_K3.3_C3.2_[T-1C]_H3.3_A3.1_F3.1_T3.2_[T9C]_[A10C] (ssRNA)
RNA: UCUCUUCCACACUAUACCUCUCUU
For B18, the Kd was over 2300 nM.

B19: Id_ii_S1_P3E.4_K3.3_C3.2_[C-2A]_H3.3_A3.1_F3.1_T3.2_[T9G]_[A10C] (ssRNA)
RNA: UCUCUUAUACACUAUAGCUCUCUU
Binder B19 has a Kd of 45.7 nM.

B20: Id_ii_S1_P3E.4_K3.3_C3.2_[C-2A]_H3.3_A3.1_F3.1_T3.2_[A10T] (ssRNA)
RNA: UCUCUUAUACACUAUAUUUCUCUU
B20 gave a Kd of 38.6 nM.

B21: Id_ii_S1_P3E.4_K3.3_C3.2_[T-1G]_H3.3_A3.1_F3.1_T3.2_[T9A]_[A10T] (ssRNA)
RNA: UCUCUUCGACACUAUAAUUCUCUU
B21 gave a Kd of over 2300 nM.

B22: Id_ii_S1_P3E.4_K3.3_C3.2_[C-2A]_H3.3_A3.1_F3.1_T3.2_[T9A]_[A10T] (ssRNA)
RNA: UCUCUUAUACACUAUAAUUCUCUU
Binder B22 has a Kd of 43.5 nM.

B23: If_S1_P3E.4_K3.3_C3.2_H3.3_A3.1_F3.1_T3.2 (ssRNA)
RNA: UCUCUUCUACACUAUAUAUCUCUU
Work on B23 yielded a Kd of 1000 nM.

B24: Id_ii_S1_P3E.4_K3.3_C3.2_[C-2A]_[T-1G]_H3.3_A3.1_F3.1_T3.2_[A10T] (ssRNA)
RNA: UCUCUUAGACACUAUAUUUCUCUU
Work on B24 yielded a Kd of over 2300 nM.

B25: Ib_S1_P4E.1_K4.1_C4.1_H4.1_[G2T]_A4.1_[T7C]_F4.1_T4.1 (ssRNA)
RNA: UCUCUUUUUAUACUAUCUCUU
B25 was tested, and the Kd was 1060 nM.

B26: Id_ii_S1_P3E.4_K3.3_C3.2_[T-1A]_H3.3_A3.1_F3.1_T3.2_[T9C]_[A10C] (ssRNA)
RNA: UCUCUUCAACACUAUACCUCUCUU
With B26 the Kd was over 2300 nM.

B27: Id_ii_S1_P3E.4_K3.3_C3.2_[C-2A]_[T-1C]_H3.3_A3.1_F3.1_T3.2_[T9G]_[A10T] (ssRNA)
RNA: UCUCUUACACACUAUAGUUCUCUU
Work on B27 yielded a Kd of over 2300 nM.

B28: Ib_S1_P4E.1_K4.1_C4.1_H4.1_[G2T]_A4.1_[T7A]_F4.1_T4.1 (ssRNA)
RNA: UCUCUUUUUAUAAUAUCUCUU
B28 showed a Kd of 1450 nM.

B29: Id_ii_S1_P3E.4_K3.3_C3.2_[C-2A]_H3.3_A3.1_F3.1_T3.2_[T9C]_[A10C] (ssRNA)
RNA: UCUCUUAUACACUAUACCUCUCUU
Work on B29 yielded a Kd of 30.1 nM.

B30: Id_ii_S1_P3E.4_K3.3_C3.2_[C-2A]_[T-1G]_H3.3_A3.1_F3.1_T3.2_[T9A] (ssRNA)
RNA: UCUCUUAGACACUAUAAAUCUCUU
B30 showed a Kd of over 2300 nM.

B31: Id_ii_S1_P3E.4_K3.3_C3.2_H3.3_A3.1_F3.1_T3.2_[T9C] (ssRNA)
RNA: UCUCUUCUACACUAUACAUCUCUU
Work on B31 yielded a Kd of 2230 nM.

B32: Ib_S1_P4E.1_K4.1_C4.1_H4.1_[G2A]_A4.1_[A6T]_F4.1_T4.1 (ssRNA)
RNA: UCUCUUUAUAUUUUAUCUCUU
Work on B32 yielded a Kd of 163 nM.
